Columns and labels:
[1] = biological target: nbn_human NBN (UniProt O60934)
[2] = biological target: nbn_human NBN (UniProt O60934); remark: listed apart in the source

Sequence of UniProt O60934 (O60934 whole entry): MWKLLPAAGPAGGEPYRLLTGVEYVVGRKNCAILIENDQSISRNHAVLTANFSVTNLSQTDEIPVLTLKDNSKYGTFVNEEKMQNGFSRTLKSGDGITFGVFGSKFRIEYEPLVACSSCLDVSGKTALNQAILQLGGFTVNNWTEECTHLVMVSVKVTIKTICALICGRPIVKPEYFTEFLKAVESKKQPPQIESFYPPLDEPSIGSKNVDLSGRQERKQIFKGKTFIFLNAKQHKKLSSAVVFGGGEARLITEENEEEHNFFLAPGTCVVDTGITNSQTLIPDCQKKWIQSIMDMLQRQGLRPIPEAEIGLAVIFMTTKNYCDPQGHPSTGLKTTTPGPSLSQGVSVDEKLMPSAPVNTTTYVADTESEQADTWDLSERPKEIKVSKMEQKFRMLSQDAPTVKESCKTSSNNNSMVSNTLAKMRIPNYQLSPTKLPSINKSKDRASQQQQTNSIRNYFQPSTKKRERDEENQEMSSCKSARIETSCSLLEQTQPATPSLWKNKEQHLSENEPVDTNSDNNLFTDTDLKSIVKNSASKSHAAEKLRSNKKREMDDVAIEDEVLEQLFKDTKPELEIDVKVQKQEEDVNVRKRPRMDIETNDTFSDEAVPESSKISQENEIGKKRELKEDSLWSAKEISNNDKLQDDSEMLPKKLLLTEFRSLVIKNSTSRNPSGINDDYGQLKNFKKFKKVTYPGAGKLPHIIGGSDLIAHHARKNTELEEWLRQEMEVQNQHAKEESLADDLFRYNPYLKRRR

effect of a mutation on the interaction [1]: disrupting interaction
effect of a mutation on the interaction [2]: decreasing interaction
Substance: Histone acetyltransferase p300 (Homo sapiens), Q09472 S106A
